Laboratory results as given in the supplement of paper PMC10567573.

B1: SERPINB5 (parent)
chain: FPESETKECPFRVNKVCGAACSSK

Variants of: B1
Assay: protein stability index of a GFP-peptide fusion (GPS, HEK-293T) (PSI 1-6); higher = more stable
Conditions: c terminus: a fixed tail appended
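Also: lentivirally expressed fusions sorted by FACS into six bins by GFP to DsRed ratio, PSI derived from sequencing read proportions per bin multiplied by bin number.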

Variant	protein stability index
FPESETKRCPFRVNKVCGAACSSK [E8R]	1.82
FPESETKQCPFRVNKVCGAACSSK [E8Q]	1.98
FPESETKYCPFRVNKVCGAACSSK [E8Y]	1.93
FPESETKGCPFRVNKVCGAACSSK [E8G]	1.9
FPESETKTCPFRVNKVCGAACSSK [E8T]	2.6
FPESETKFCPFRVNKVCGAACSSK [E8F]	1.97
FCESETKECPFRVNKVCGAACSSK [P2C]	2.31
FWESETKECPFRVNKVCGAACSSK [P2W]	3.64
FDESETKECPFRVNKVCGAACSSK [P2D]	4.73
FHESETKECPFRVNKVCGAACSSK [P2H]	2.19
FQESETKECPFRVNKVCGAACSSK [P2Q]	3.73
FEESETKECPFRVNKVCGAACSSK [P2E]	4.59
FSESETKECPFRVNKVCGAACSSK [P2S]	3.66
FYESETKECPFRVNKVCGAACSSK [P2Y]	3.67
FPESEQKECPFRVNKVCGAACSSK [T6Q]	2.95
FPESESKECPFRVNKVCGAACSSK [T6S]	2.36
FPESERKECPFRVNKVCGAACSSK [T6R]	2.63
FPESEIKECPFRVNKVCGAACSSK [T6I]	2.82
FPESEGKECPFRVNKVCGAACSSK [T6G]	2.09
FPESEYKECPFRVNKVCGAACSSK [T6Y]	2.28
FPESEDKECPFRVNKVCGAACSSK [T6D]	2.47
FPESEMKECPFRVNKVCGAACSSK [T6M]	2.63
FPESELKECPFRVNKVCGAACSSK [T6L]	2.1
FPESETKECPFRVNKVCIAACSSK [G18I]	2.1

Variant	protein stability index
FPESETKECPFRVNKVCYAACSSK [G18Y]	2.09
FPESETKECPFRVNKVCWAACSSK [G18W]	3.39
FPESETKECPFRVNKVCDAACSSK [G18D]	2.89
FPESETKECPFRVNKVCMAACSSK [G18M]	2.56
FPESETKECPFRVNKVCPAACSSK [G18P]	2.42
FPESETKECPFRVNKVCFAACSSK [G18F]	2.09
FPESETKECPFRVNKVCAAACSSK [G18A]	2.65
FPESETKECPFRVNKVCEAACSSK [G18E]	2.6
FPESETCECPFRVNKVCGAACSSK [K7C]	3.21
FPESETQECPFRVNKVCGAACSSK [K7Q]	2.86
FPESETRECPFRVNKVCGAACSSK [K7R]	2.88
FPESETDECPFRVNKVCGAACSSK [K7D]	3.22
FPESNTKECPFRVNKVCGAACSSK [E5N]	1.89
FPESCTKECPFRVNKVCGAACSSK [E5C]	1.72
FPESGTKECPFRVNKVCGAACSSK [E5G]	1.68
FPESHTKECPFRVNKVCGAACSSK [E5H]	1.4
FPESQTKECPFRVNKVCGAACSSK [E5Q]	1.4
FPESFTKECPFRVNKVCGAACSSK [E5F]	1.6
FPESETKECPFRVRKVCGAACSSK [N14R]	2.17
FPESETKECPFRVPKVCGAACSSK [N14P]	2.47
FPESETKECPFRVKKVCGAACSSK [N14K]	2.07
FPESETKECPFRVDKVCGAACSSK [N14D]	3.17
FPESETKECPFRVVKVCGAACSSK [N14V]	2.08
FPESETKECPFRVHKVCGAACSSK [N14H]	3.27

Variant	protein stability index
FPESETKECPFRVSKVCGAACSSK [N14S]	2.45
FPESETKECPFRVWKVCGAACSSK [N14W]	2.4
FPESETKECPFRVQKVCGAACSSK [N14Q]	3.29
FPESETKECPFRVIKVCGAACSSK [N14I]	1.96
FPESETKECPFRVTKVCGAACSSK [N14T]	2.5
FPESETKECPFRVNKVCGAACSSG [K24G]	2.57
FPESETKECPFRVNKVCGAACSSV [K24V]	2.17
FPESETKECPFRVNKVCGAACSSE [K24E]	2.96
FPESETKECPFRVNKVCGAACSSY [K24Y]	2.25
FPESETKECPFRVNKVCGAACSST [K24T]	2.48
FPESETKECPFRVNKVCGAACSSL [K24L]	2.13
FPESETKECPFRVNKVCGAACSSN [K24N]	1.89
FPESETKECPFRVNKVCGAACSSC [K24C]	3.31
FPEIETKECPFRVNKVCGAACSSK [S4I]	2.72
FPEPETKECPFRVNKVCGAACSSK [S4P]	3.49
FPEFETKECPFRVNKVCGAACSSK [S4F]	2.54
FPEKETKECPFRVNKVCGAACSSK [S4K]	3.78
FPEDETKECPFRVNKVCGAACSSK [S4D]	4.14
FPESETKECPFRVNAVCGAACSSK [K15A]	3.17
FPESETKECPFRVNHVCGAACSSK [K15H]	4.17
FPESETKECPFRVNEVCGAACSSK [K15E]	2.83
FPESETKECPFRVNDVCGAACSSK [K15D]	3.01
FPESETKECPFRVNVVCGAACSSK [K15V]	2.1
FPESETKECPFRVNIVCGAACSSK [K15I]	2.12

Variant	protein stability index
FPESETKECPFRVNQVCGAACSSK [K15Q]	2.52
FPESETKECPFRVNWVCGAACSSK [K15W]	1.32
FPESETKECPFRVNKVCGAACISK [S22I]	2.27
FPESETKECPFRVNKVCGAACWSK [S22W]	2.03
FPESETKECPFRVNKVCGAACASK [S22A]	3.52
FPESETKECPFRVNKVCGAACNSK [S22N]	2.62
FPESETKECPFRVNKVCGAACKSK [S22K]	2.39
FPESETKECPFRVNKVCGAACFSK [S22F]	1.66
FPESETKECPFRVNKVCGAACVSK [S22V]	2.1
FPESETKECPFRVNKVCGACCSSK [A20C]	2.17
FPESETKECPFRVNKVCGAKCSSK [A20K]	2.26
FPESETKECPFRVNKVCGANCSSK [A20N]	3.18
FPESETKECPFRVNKVCGAPCSSK [A20P]	2.49
FPESETKECPFRVNKVCGAHCSSK [A20H]	2.58
FPESETKECPFRVNKVCGATCSSK [A20T]	3.22
FPESETKECPFRVNKVCGAICSSK [A20I]	2.32
FPESETKECPFRVNKVCGARCSSK [A20R]	2.53
FPESETKECRFRVNKVCGAACSSK [P10R]	3.63
FPESETKECAFRVNKVCGAACSSK [P10A]	2.95
FPESETKECNFRVNKVCGAACSSK [P10N]	4.02
FPESETKECYFRVNKVCGAACSSK [P10Y]	2.3
FPESETKECMFRVNKVCGAACSSK [P10M]	3.41
FPESETKECPFRVNKVCGPACSSK [A19P]	2.08
FPESETKECPFRVNKVCGIACSSK [A19I]	2.63

Variant	protein stability index
FPESETKECPFRVNKVCGDACSSK [A19D]	3.03
FPESETKECPFRVNKVCGFACSSK [A19F]	2.02
FPESETKECPFRVNKVCGGACSSK [A19G]	2.81
FPESETKECPFRVNKVCGMACSSK [A19M]	2.36
FPESETKECPFRVNKVCGSACSSK [A19S]	2.92
FPESETKECPFRVNKVCGQACSSK [A19Q]	2.7
FPESETKECPFSVNKVCGAACSSK [R12S]	3.95
FPESETKECPFKVNKVCGAACSSK [R12K]	3.57
FPESETKECPFQVNKVCGAACSSK [R12Q]	3.36
FPESETKECPFWVNKVCGAACSSK [R12W]	2.87
FPESETKECPFDVNKVCGAACSSK [R12D]	4.86
FPESETKECPFMVNKVCGAACSSK [R12M]	2.86
FPESETKECPFVVNKVCGAACSSK [R12V]	2.43
FPESETKECPFYVNKVCGAACSSK [R12Y]	3.43
FPESETKECPFNVNKVCGAACSSK [R12N]	3.66
FPESETKECPFRKNKVCGAACSSK [V13K]	3.93
FPESETKECPFRWNKVCGAACSSK [V13W]	2.19
FPESETKECPFRFNKVCGAACSSK [V13F]	2.59
FPESETKECPFRLNKVCGAACSSK [V13L]	3.19
FPESETKECPFRNNKVCGAACSSK [V13N]	3.71
FPESETKECPFRMNKVCGAACSSK [V13M]	3.1
FPESETKECPFRCNKVCGAACSSK [V13C]	3.09
FPESETKECPFRINKVCGAACSSK [V13I]	2.6
FPESETKECPFRGNKVCGAACSSK [V13G]	3.81

Variant	protein stability index
FPESETKECPFRENKVCGAACSSK [V13E]	4.17
FPESETKERPFRVNKVCGAACSSK [C9R]	4.34
FPESETKEWPFRVNKVCGAACSSK [C9W]	2.07
FPESETKEDPFRVNKVCGAACSSK [C9D]	3.87
FPESETKEMPFRVNKVCGAACSSK [C9M]	3.81
FPESETKEVPFRVNKVCGAACSSK [C9V]	4.4
FPESETKEEPFRVNKVCGAACSSK [C9E]	4.84
FPESETKEIPFRVNKVCGAACSSK [C9I]	4.39
FPESETKEGPFRVNKVCGAACSSK [C9G]	2.82
KPESETKECPFRVNKVCGAACSSK [F1K]	4.89
EPESETKECPFRVNKVCGAACSSK [F1E]	5.05
QPESETKECPFRVNKVCGAACSSK [F1Q]	4.5
RPESETKECPFRVNKVCGAACSSK [F1R]	4.65
GPESETKECPFRVNKVCGAACSSK [F1G]	4.7
VPESETKECPFRVNKVCGAACSSK [F1V]	4.5
FPESETKECPFRVNKVCGAACSTK [S23T]	2.19
FPESETKECPFRVNKVCGAACSDK [S23D]	2.78
FPESETKECPFRVNKVCGAACSEK [S23E]	3.16
FPESETKECPFRVNKVCGAACSIK [S23I]	2.26
FPESETKECPFRVNKVCGAACSYK [S23Y]	2.29
FPESETKECPFRVNKVCGAACSGK [S23G]	2.4
FPESETKECPFRVNKVCGAACSCK [S23C]	2.66
FPESETKECPFRVNKVCGAACSRK [S23R]	2.02
FPESETKECPFRVNKVCGAAMSSK [C21M]	2.35

Variant	protein stability index
FPESETKECPFRVNKVCGAARSSK [C21R]	2.56
FPESETKECPFRVNKVCGAAISSK [C21I]	2.04
FPESETKECPFRVNKVCGAAHSSK [C21H]	2.44
FPESETKECPFRVNKVCGAAESSK [C21E]	3.19
FPESETKECPFRVNKVCGAAVSSK [C21V]	2.56
FPESETKECPFRVNKVCGAAQSSK [C21Q]	2.22
FPESETKECPARVNKVCGAACSSK [F11A]	4.43
FPESETKECPRRVNKVCGAACSSK [F11R]	4.67
FPESETKECPSRVNKVCGAACSSK [F11S]	5.28
FPESETKECPNRVNKVCGAACSSK [F11N]	5.12
FPESETKECPERVNKVCGAACSSK [F11E]	4.43
FPESETKECPMRVNKVCGAACSSK [F11M]	4.48
FPESETKECPTRVNKVCGAACSSK [F11T]	4.45
FPESETKECPDRVNKVCGAACSSK [F11D]	5.06
FPESETKECPGRVNKVCGAACSSK [F11G]	2.87
FPESETKECPYRVNKVCGAACSSK [F11Y]	2.99
FPESETKECPCRVNKVCGAACSSK [F11C]	3.71
FPESETKECPLRVNKVCGAACSSK [F11L]	4.31
FPESETKECPFRVNKNCGAACSSK [V16N]	2.82
FPESETKECPFRVNKLCGAACSSK [V16L]	1.86
FPESETKECPFRVNKACGAACSSK [V16A]	3.03
FPESETKECPFRVNKMCGAACSSK [V16M]	2.18
FPESETKECPFRVNKWCGAACSSK [V16W]	2.49
FPESETKECPFRVNKYCGAACSSK [V16Y]	2.14

Variant	protein stability index
FPESETKECPFRVNKECGAACSSK [V16E]	3.12
FPESETKECPFRVNKRCGAACSSK [V16R]	2.8
FPESETKECPFRVNKCCGAACSSK [V16C]	2.24
FPESETKECPFRVNKKCGAACSSK [V16K]	2.61
FPESETKECPFRVNKTCGAACSSK [V16T]	2.71
FPRSETKECPFRVNKVCGAACSSK [E3R]	1.71
FPWSETKECPFRVNKVCGAACSSK [E3W]	2.29
FPHSETKECPFRVNKVCGAACSSK [E3H]	1.55
FPGSETKECPFRVNKVCGAACSSK [E3G]	1.88
FPFSETKECPFRVNKVCGAACSSK [E3F]	1.75
FPTSETKECPFRVNKVCGAACSSK [E3T]	1.43
FPDSETKECPFRVNKVCGAACSSK [E3D]	2.42
FPPSETKECPFRVNKVCGAACSSK [E3P]	2.15
FPESETKECPFRVNKVGGAACSSK [C17G]	2.91
FPESETKECPFRVNKVIGAACSSK [C17I]	3.16
FPESETKECPFRVNKVDGAACSSK [C17D]	2.81
FPESETKECPFRVNKVSGAACSSK [C17S]	3.13
FPESETKECPFRVNKVKGAACSSK [C17K]	3.12
FPESETKECPFRVNKVNGAACSSK [C17N]	2.99
FPESETKECPFRVNKVRGAACSSK [C17R]	2.48
